Consider three molecules from patent publication US20260125457A1 (Janssen / Centocor, published 2026).

Test [1] has as its target HIS-CALRdel52 (produced in E. coli). The test can be described thus: QC monoclonal phage ELISA, helper phage control. Background: An ELISA detects its analyte on a solid surface through an enzyme-linked reagent.
Test [2] deals with T1, CALRdel52 (mutant calreticulin, 52 base pair deletion, Type 1) expressed with MPL on engineered cancer cells (UniProt P27797 18-417).
T1 construct: whole, on cells; On the cell surface in complex with MPL; also called OCI-M2 MPL CALRdel52
T1 sequence (looked up): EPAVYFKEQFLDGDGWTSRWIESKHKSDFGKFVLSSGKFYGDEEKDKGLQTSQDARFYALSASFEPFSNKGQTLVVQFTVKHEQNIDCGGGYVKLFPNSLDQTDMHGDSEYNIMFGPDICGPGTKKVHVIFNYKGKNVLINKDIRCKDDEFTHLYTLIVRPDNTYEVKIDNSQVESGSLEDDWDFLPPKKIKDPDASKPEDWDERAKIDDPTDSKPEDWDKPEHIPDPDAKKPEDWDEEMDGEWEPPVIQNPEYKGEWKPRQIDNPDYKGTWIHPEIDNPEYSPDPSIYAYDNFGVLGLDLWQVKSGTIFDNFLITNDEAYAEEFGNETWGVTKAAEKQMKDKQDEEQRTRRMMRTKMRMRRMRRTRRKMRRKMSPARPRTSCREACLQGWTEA
Kind of test: flow cytometry on OCI-M2 MPL CALRdel52 cells, 1 h at 37 C, AF647 secondary antibody, Geometric Mean. As to the method:
FIGS. 21A-21F depict binding of different CALRmutxCD3 bispecific antibodies to CALRmut-negative or CALRmut-positive cells. Flow cytometry was used to evaluate CALRmutxCD3 binding to CALRmut-negative and CALRmut-positive cancer cells in vitro. CALRmutxCD3 antibodies were tested on a panel of cell lines, engineered to express MPL and CALRmut, after 1 hour 37° C. incubation, with subsequent incubation with secondary AF647-labeled antibody. Geometric mean fluorescence intensity of AF647 was measured to determine antibody binding.
In general terms: A flow cytometer gives signals particle by particle.

In test [3] the target is T2, CD3 on primary human pan T cells (human, UniProt P07766 23-207).
T2 construct: whole, on cells; also called CD3e; CD3ε
Kind of test: flow cytometry on pan CD3 T cells, 1 h at 37 C, AF647 secondary antibody, Geometric Mean. Here is the method: FIG. 22 depicts binding of different CALRmutxCD3 bispecific antibodies to pan CD3 T cells. Flow cytometry was used to evaluate CALRmutxCD3 binding to pan CD3 T cells in vitro, by 1 hour 37° C. incubation, with subsequent incubation with secondary AF647-labeled antibody. Geometric mean fluorescence intensity of AF647 was measured to determine antibody binding.
Flow cytometry was used to evaluate the CD3 arm binding of CALRmutxCD3 antibodies listed in Table 21 to CD3+ pan T cells from healthy human donor. CALRmutxCD3 were tested after 1 hour 37° C. incubation with pan T cells.

The target of test [4] is T3, wild-type calreticulin (CALRwt) expressed with MPL in engineered cancer cells (UniProt P27797 18-417, limits assumed).
T3 construct: whole, on cells; also called OCI-M2 MPL CALRwt
T3 sequence (looked up): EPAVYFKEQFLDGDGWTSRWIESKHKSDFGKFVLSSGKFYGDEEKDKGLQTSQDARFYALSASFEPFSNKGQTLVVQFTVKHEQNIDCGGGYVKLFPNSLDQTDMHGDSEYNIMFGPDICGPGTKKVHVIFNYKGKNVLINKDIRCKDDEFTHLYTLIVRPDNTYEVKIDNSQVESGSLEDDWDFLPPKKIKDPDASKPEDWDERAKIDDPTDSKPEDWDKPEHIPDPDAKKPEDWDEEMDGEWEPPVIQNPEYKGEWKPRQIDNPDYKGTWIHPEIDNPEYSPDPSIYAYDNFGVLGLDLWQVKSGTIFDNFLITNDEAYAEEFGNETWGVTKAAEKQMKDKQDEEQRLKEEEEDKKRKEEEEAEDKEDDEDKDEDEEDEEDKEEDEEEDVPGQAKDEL
The test can be described thus: flow cytometry, ELF-153 and OCI-M2 MPL CALRwt cells.

Test [5] has as its target T3, wild-type calreticulin (CALRwt) …. The test can be described thus: flow cytometry, OCI-M2 and ELF-153 MPL CALRwt cells.
Test [6] addresses T4, CALRins5 (mutant calreticulin, 5 base pair insertion, Type 2) expressed with MPL on engineered cancer cells (UniProt P27797 18-417).
T4 construct: whole, on cells; On the cell surface in complex with MPL; also called OCI-M2 MPL CALRins5
T4 sequence (looked up): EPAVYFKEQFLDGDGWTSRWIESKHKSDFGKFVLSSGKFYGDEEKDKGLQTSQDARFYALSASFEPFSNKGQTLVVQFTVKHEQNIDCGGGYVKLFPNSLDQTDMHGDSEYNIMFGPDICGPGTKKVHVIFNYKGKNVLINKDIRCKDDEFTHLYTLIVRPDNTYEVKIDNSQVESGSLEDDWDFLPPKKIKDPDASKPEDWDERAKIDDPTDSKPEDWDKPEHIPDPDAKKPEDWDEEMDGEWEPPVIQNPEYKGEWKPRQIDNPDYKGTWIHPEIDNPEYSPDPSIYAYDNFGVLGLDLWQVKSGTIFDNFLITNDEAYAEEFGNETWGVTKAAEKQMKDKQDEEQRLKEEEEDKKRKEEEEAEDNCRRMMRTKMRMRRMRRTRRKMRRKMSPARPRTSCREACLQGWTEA
The test can be described thus: flow cytometry, OCI-M2 and ELF-153 MPL CALRins5 cells.

Test [7] addresses T1, CALRdel52 (mutant calreticulin, 52 base …). Kind of test: flow cytometry, OCI-M2 and ELF-153 MPL CALRdel52 cells.

In general, EC50 (read off the curve) refers to the midpoint of the concentration-response curve. A lower EC50 (read off the curve) goes with higher potency in that assay.

T2 sequence (P07766 23-207): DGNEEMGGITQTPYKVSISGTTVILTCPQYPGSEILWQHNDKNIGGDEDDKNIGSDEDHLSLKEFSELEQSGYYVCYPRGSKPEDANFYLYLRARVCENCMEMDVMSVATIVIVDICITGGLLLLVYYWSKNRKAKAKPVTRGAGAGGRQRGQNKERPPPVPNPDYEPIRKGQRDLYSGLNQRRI

Consider M13KO7, for which, in test [1], the phage ELISA signal (Coating: CALR) was determined as 0.225.

B1: C3CRB127 CALRmut x CD3 bispecific antibody (bispecific antibody, human IgG1, kappa, L234A L235A)
heavy 1: QVQLVQSGAEVKKPGASVKVSCKASGFSLSSYAMSWVRQAPGQGLEWMGVIDSGGTTYYAQKFQGRVTMTRDTSTSTVYMELSSLRSEDTAVYYCARESYAGYDYYGHPIPYGMEPWGQGTLVTVSSASTKGPSVFPLAPSSKSTSGGTAALGCLVKDYFPEPVTVSWNSGALTSGVHTFPAVLQSSGLYSLSSVVTVPSSSLGTQTYICNVNHKPSNTKVDKKVEPKSCGGGGSGGGGSEVQLVESGGGLVKPGGSLRLSCAASGFTFSRYNMNWVRQAPGCGLEWVSSISTSSNYIYYADSVKGRFTFSRDNAKNSLDLQMSGLRAEDTAIYYCTRGWGPFDYWGQGTLVTVSSGGGSGGSGGCPPCGGSGGDIQMTQSPSSLSASVGDRVTITCRARQSIGTAIHWYQQKPGKAPKLLIKYASESISGVPSRFSGSGSGTDFTLTISSLQPEDFATYYCQQSGSWPYTFGCGTKLEIKEPKSSDKTHTCPPCPAPEAAGGPSVFLFPPKPKDTLMISRTPEVTCVVVSVSHEDPEVKFNWYVDGVEVHNAKTKPREEQYNSTYRVVSVLTVLHQDWLNGKEYKCKVSNKALPAPIEKTISKAKGQPREPQVYTLPPSREEMTKNQVSLWCLVKGFYPSDIAVEWESNGQPENNYKTTPPVLDSDGSFFLYSKLTVDKSRWQQGNVFSCSVMHEALHNHYTQKSLSLSPGK
heavy 2: QVQLVQSGAEVKKPGASVKVSCKASGFSLSSYAMSWVRQAPGQGLEWMGVIDSGGTTYYAQKFQGRVTMTRDTSTSTVYMELSSLRSEDTAVYYCARESYAGYDYYGHPIPYGMEPWGQGTLVTVSSASTKGPSVFPLAPSSKSTSGGTAALGCLVKDYFPEPVTVSWNSGALTSGVHTFPAVLQSSGLYSLSSVVTVPSSSLGTQTYICNVNHKPSNTKVDKKVEPKSCDKTHTCPPCPAPEAAGGPSVFLFPPKPKDTLMISRTPEVTCVVVSVSHEDPEVKFNWYVDGVEVHNAKTKPREEQYNSTYRVVSVLTVLHQDWLNGKEYKCKVSNKALPAPIEKTISKAKGQPREPQVYTLPPSREEMTKNQVSLSCAVKGFYPSDIAVEWESNGQPENNYKTTPPVLDSDGSFFLVSKLTVDKSRWQQGNVFSCSVMHEALHNRFTQKSLSLSPGK
light: DIQMTQSPSTLSASVGDRVTITCQASQSLYNNKNLAWYQQKPGKAPKLLIYYASALASGVPSRFSGSGSGTEFTLTISSLQPDDFATYYCQGEFNCNSADCNSFGGGTKVEIKRTVAAPSVFIFPPSDEQLKSGTASVVCLLNNFYPREAKVQWKVDNALQSGNSQESVTEQDSKDSTYSLSSTLTLSKADYEKHKVYACEVTHQGLSSPVTKSFNRGEC
notes: Chain A heavy: CALRB1114 Fab heavy part, CD3 spFv (HL), Fc; Chain B heavy: CALRB1114
Consider B1, for which the “EC50 (read off the curve)” value was roughly 2 nM in test [2] and roughly 5 nM in test [3]. Besides, the binding result in test [4] is “no binding”.

B2: C3CRB136 CALRmut x CD3 bispecific antibody (bispecific antibody, human IgG1, kappa, L234A L235A)
scFv: DIQMTQSPSSLSASVGDRVTITCRARQSIGTAIHWYQQKPGCAPKLLIKYASESISGVPSRFSGSGSGTDFTLTISSLQPEDFATYYCQQSGSWPYTFGQGTKLEIKGGGSGGSGGCPPCGGSGGEVQLVESGGGLVKPGGSLRLSCAASGFTFSRYNMNWVRQAPGKGLEWVSSISTSSNYIYYADSVKGRFTFSRDNAKNSLDLQMSGLRAEDTAIYYCTRGWGPFDYWGCGTLVTVSSEPKSSDKTHTCPPCPAPEAAGGPSVFLFPPKPKDTLMISRTPEVTCVVVSVSHEDPEVKFNWYVDGVEVHNAKTKPREEQYNSTYRVVSVLTVLHQDWLNGKEYKCKVSNKALPAPIEKTISKAKGQPREPQVYTLPPSREEMTKNQVSLWCLVKGFYPSDIAVEWESNGQPENNYKTTPPVLDSDGSFFLYSKLTVDKSRWQQGNVFSCSVMHEALHNHYTQKSLSLSPGK
heavy: QVQLVQSGAEVKKPGASVKVSCKASGFSLSSYAMSWVRQAPGQGLEWMGVIDSGGTTYYAQKFQGRVTMTRDTSTSTVYMELSSLRSEDTAVYYCARESYAGYDYYGHPIPYGMEPWGQGTLVTVSSASTKGPSVFPLAPSSKSTSGGTAALGCLVKDYFPEPVTVSWNSGALTSGVHTFPAVLQSSGLYSLSSVVTVPSSSLGTQTYICNVNHKPSNTKVDKKVEPKSCGGGGSGGGGSQVQLVQSGAEVKKPGASVKVSCKASGFSLSSYAMSWVRQAPGQGLEWMGVIDSGGTTYYAQKFQGRVTMTRDTSTSTVYMELSSLRSEDTAVYYCARESYAGYDYYGHPIPYGMEPWGQGTLVTVSSASTKGPSVFPLAPSSKSTSGGTAALGCLVKDYFPEPVTVSWNSGALTSGVHTFPAVLQSSGLYSLSSVVTVPSSSLGTQTYICNVNHKPSNTKVDKKVEPKSCDKTHTCPPCPAPEAAGGPSVFLFPPKPKDTLMISRTPEVTCVVVSVSHEDPEVKFNWYVDGVEVHNAKTKPREEQYNSTYRVVSVLTVLHQDWLNGKEYKCKVSNKALPAPIEKTISKAKGQPREPQVYTLPPSREEMTKNQVSLSCAVKGFYPSDIAVEWESNGQPENNYKTTPPVLDSDGSFFLVSKLTVDKSRWQQGNVFSCSVMHEALHNRFTQKSLSLSPGK
light: B1 light
notes: Chain B heavy: two CALRB1114 Fab heavy parts in tandem, Fc
As for B2, the binding result in test [5] is “no binding”; in test [6] it was “binds”; in test [7], “binds”.
